Data published in US20240109972A1, “ANTIBODY AND TAXANE COMBINATION THERAPY” (Genmab A/S, priority 2020, published 2024).

Assay: GEN1046 in combination with docetaxel in metastatic NSCLC subjects, adverse effects
Assay type: in vivo, human
Description: Docetaxel was administered at a dose of 55 mg/m^2 or 75 mg/m^2 depending on the number of prior Dose Limiting Toxicities observed. The maximum tested dose of docetaxel was be 75 mg/m^2.
Subjects with a histological or cytological diagnosis of non-squamous NSCLC must not have an EGFR-sensitizing mutation and/or ALK translocation/ROS1 rearrangement. EGFR sensitizing mutations are those mutations that are amenable to treatment with an approved TKI. Documentation of EGFR and ALK status should be available per local assessment.

Substance: GEN1046: PD-L1×4-1BB bispecific antibody: PD-L1-547-FEAL combined with CD137-009-HC7LC2-FEAR (SEQ ID NOs: 1, 5, 21, 19; 8, 12, 22, 20)
- Tolerability of the combination (GEN1046 100 mg with Docetaxel 55 or 75 mg/m^2): manageable and well tolerated
- Alopecia Grade 1, GEN1046-related (GEN1046 + 55 mg/m^2 Docetaxel): 1
- Alopecia Grade 2, GEN1046-related (GEN1046 + 55 mg/m^2 Docetaxel): 0
- Alopecia Grade 3, GEN1046-related (GEN1046 + 55 mg/m^2 Docetaxel): 0
- Alopecia Grade 4, GEN1046-related (GEN1046 + 55 mg/m^2 Docetaxel): 0
- Alopecia Grade 5, GEN1046-related (GEN1046 + 55 mg/m^2 Docetaxel): 0
- Anemia Grade 1, GEN1046-related (GEN1046 + 55 mg/m^2 Docetaxel): 0
- Anemia Grade 2, GEN1046-related (GEN1046 + 55 mg/m^2 Docetaxel): 0
- Anemia Grade 3, GEN1046-related (GEN1046 + 55 mg/m^2 Docetaxel): 3
- Anemia Grade 4, GEN1046-related (GEN1046 + 55 mg/m^2 Docetaxel): 0
- Anemia Grade 5, GEN1046-related (GEN1046 + 55 mg/m^2 Docetaxel): 0
- Blood alkaline phosphatase increase Grade 1, GEN1046-related (GEN1046 + 55 mg/m^2 Docetaxel): 0
- Blood alkaline phosphatase increase Grade 2, GEN1046-related (GEN1046 + 55 mg/m^2 Docetaxel): 1
- Blood alkaline phosphatase increase Grade 3, GEN1046-related (GEN1046 + 55 mg/m^2 Docetaxel): 0
- Blood alkaline phosphatase increase Grade 4, GEN1046-related (GEN1046 + 55 mg/m^2 Docetaxel): 0
- Blood alkaline phosphatase increase Grade 5, GEN1046-related (GEN1046 + 55 mg/m^2 Docetaxel): 0
- Decreased appetite Grade 1, GEN1046-related (GEN1046 + 55 mg/m^2 Docetaxel): 0
- Decreased appetite Grade 2, GEN1046-related (GEN1046 + 55 mg/m^2 Docetaxel): 1
- Decreased appetite Grade 3, GEN1046-related (GEN1046 + 55 mg/m^2 Docetaxel): 0
- Decreased appetite Grade 4, GEN1046-related (GEN1046 + 55 mg/m^2 Docetaxel): 0
- Decreased appetite Grade 5, GEN1046-related (GEN1046 + 55 mg/m^2 Docetaxel): 0
- Dyspnea Grade 1, GEN1046-related (GEN1046 + 55 mg/m^2 Docetaxel): 0
- Dyspnea Grade 2, GEN1046-related (GEN1046 + 55 mg/m^2 Docetaxel): 1
- Dyspnea Grade 3, GEN1046-related (GEN1046 + 55 mg/m^2 Docetaxel): 0
- Dyspnea Grade 4, GEN1046-related (GEN1046 + 55 mg/m^2 Docetaxel): 0
- Dyspnea Grade 5, GEN1046-related (GEN1046 + 55 mg/m^2 Docetaxel): 0
- Fatigue Grade 1, GEN1046-related (GEN1046 + 55 mg/m^2 Docetaxel): 0
- Fatigue Grade 2, GEN1046-related (GEN1046 + 55 mg/m^2 Docetaxel): 2
- Fatigue Grade 3, GEN1046-related (GEN1046 + 55 mg/m^2 Docetaxel): 1
- Fatigue Grade 4, GEN1046-related (GEN1046 + 55 mg/m^2 Docetaxel): 0
- Fatigue Grade 5, GEN1046-related (GEN1046 + 55 mg/m^2 Docetaxel): 0
- Hypokalemia Grade 1, GEN1046-related (GEN1046 + 55 mg/m^2 Docetaxel): 0
- Hypokalemia Grade 2, GEN1046-related (GEN1046 + 55 mg/m^2 Docetaxel): 1
- Hypokalemia Grade 3, GEN1046-related (GEN1046 + 55 mg/m^2 Docetaxel): 0
- Hypokalemia Grade 4, GEN1046-related (GEN1046 + 55 mg/m^2 Docetaxel): 0
- Hypokalemia Grade 5, GEN1046-related (GEN1046 + 55 mg/m^2 Docetaxel): 0
- Hypomagnesaemia Grade 1, GEN1046-related (GEN1046 + 55 mg/m^2 Docetaxel): 1
- Hypomagnesaemia Grade 2, GEN1046-related (GEN1046 + 55 mg/m^2 Docetaxel): 0
- Hypomagnesaemia Grade 3, GEN1046-related (GEN1046 + 55 mg/m^2 Docetaxel): 0
- Hypomagnesaemia Grade 4, GEN1046-related (GEN1046 + 55 mg/m^2 Docetaxel): 0
- Hypomagnesaemia Grade 5, GEN1046-related (GEN1046 + 55 mg/m^2 Docetaxel): 0
- Nausea Grade 1, GEN1046-related (GEN1046 + 55 mg/m^2 Docetaxel): 1
- Nausea Grade 2, GEN1046-related (GEN1046 + 55 mg/m^2 Docetaxel): 0
- Nausea Grade 3, GEN1046-related (GEN1046 + 55 mg/m^2 Docetaxel): 0
- Nausea Grade 4, GEN1046-related (GEN1046 + 55 mg/m^2 Docetaxel): 0
- Nausea Grade 5, GEN1046-related (GEN1046 + 55 mg/m^2 Docetaxel): 0
- Neutrophil count decreased Grade 1, GEN1046-related (GEN1046 + 55 mg/m^2 Docetaxel): 0
- Neutrophil count decreased Grade 2, GEN1046-related (GEN1046 + 55 mg/m^2 Docetaxel): 0
- Neutrophil count decreased Grade 3, GEN1046-related (GEN1046 + 55 mg/m^2 Docetaxel): 1
- Neutrophil count decreased Grade 4, GEN1046-related (GEN1046 + 55 mg/m^2 Docetaxel): 0
- Neutrophil count decreased Grade 5, GEN1046-related (GEN1046 + 55 mg/m^2 Docetaxel): 0
- Pyrexia Grade 1, GEN1046-related (GEN1046 + 55 mg/m^2 Docetaxel): 1
- Pyrexia Grade 2, GEN1046-related (GEN1046 + 55 mg/m^2 Docetaxel): 0
- Pyrexia Grade 3, GEN1046-related (GEN1046 + 55 mg/m^2 Docetaxel): 0
- Pyrexia Grade 4, GEN1046-related (GEN1046 + 55 mg/m^2 Docetaxel): 0
- Pyrexia Grade 5, GEN1046-related (GEN1046 + 55 mg/m^2 Docetaxel): 0
- Sinus tachycardia Grade 1, GEN1046-related (GEN1046 + 55 mg/m^2 Docetaxel): 0
- Sinus tachycardia Grade 2, GEN1046-related (GEN1046 + 55 mg/m^2 Docetaxel): 1
- Sinus tachycardia Grade 3, GEN1046-related (GEN1046 + 55 mg/m^2 Docetaxel): 0
- Sinus tachycardia Grade 4, GEN1046-related (GEN1046 + 55 mg/m^2 Docetaxel): 0
- Sinus tachycardia Grade 5, GEN1046-related (GEN1046 + 55 mg/m^2 Docetaxel): 0
- Total treated subjects with related TEAEs Grade 1, GEN1046-related (GEN1046 + 55 mg/m^2 Docetaxel): 4
- Total treated subjects with related TEAEs Grade 2, GEN1046-related (GEN1046 + 55 mg/m^2 Docetaxel): 4
- Total treated subjects with related TEAEs Grade 3, GEN1046-related (GEN1046 + 55 mg/m^2 Docetaxel): 3
- Total treated subjects with related TEAEs Grade 4, GEN1046-related (GEN1046 + 55 mg/m^2 Docetaxel): 0
- Total treated subjects with related TEAEs Grade 5, GEN1046-related (GEN1046 + 55 mg/m^2 Docetaxel): 0
- Vaginal hemorrhage Grade 1, GEN1046-related (GEN1046 + 55 mg/m^2 Docetaxel): 1
- Vaginal hemorrhage Grade 2, GEN1046-related (GEN1046 + 55 mg/m^2 Docetaxel): 0
- Vaginal hemorrhage Grade 3, GEN1046-related (GEN1046 + 55 mg/m^2 Docetaxel): 0
- Vaginal hemorrhage Grade 4, GEN1046-related (GEN1046 + 55 mg/m^2 Docetaxel): 0
- Vaginal hemorrhage Grade 5, GEN1046-related (GEN1046 + 55 mg/m^2 Docetaxel): 0
- Vomiting Grade 1, GEN1046-related (GEN1046 + 55 mg/m^2 Docetaxel): 0
- Vomiting Grade 2, GEN1046-related (GEN1046 + 55 mg/m^2 Docetaxel): 1
- Vomiting Grade 3, GEN1046-related (GEN1046 + 55 mg/m^2 Docetaxel): 0
- Vomiting Grade 4, GEN1046-related (GEN1046 + 55 mg/m^2 Docetaxel): 0
- Vomiting Grade 5, GEN1046-related (GEN1046 + 55 mg/m^2 Docetaxel): 0
- Amylase increased Grade 1, GEN1046-related (GEN1046 + 75 mg/m^2 Docetaxel): 1
- Amylase increased Grade 2, GEN1046-related (GEN1046 + 75 mg/m^2 Docetaxel): 0
- Amylase increased Grade 3, GEN1046-related (GEN1046 + 75 mg/m^2 Docetaxel): 0
- Amylase increased Grade 4, GEN1046-related (GEN1046 + 75 mg/m^2 Docetaxel): 0
- Amylase increased Grade 5, GEN1046-related (GEN1046 + 75 mg/m^2 Docetaxel): 0
- Anemia Grade 1, GEN1046-related (GEN1046 + 75 mg/m^2 Docetaxel): 0
- Anemia Grade 2, GEN1046-related (GEN1046 + 75 mg/m^2 Docetaxel): 1
- Anemia Grade 3, GEN1046-related (GEN1046 + 75 mg/m^2 Docetaxel): 0
- Anemia Grade 4, GEN1046-related (GEN1046 + 75 mg/m^2 Docetaxel): 0
